The values that follow come from US20160340659A1 (YISSUM RESEARCH AND DEVELOPMENT COMPANY OF THE HEBREW …, published 2016).

Where no end group is shown, it is not given here.

For test [1], the target named is T1, actin (Example II solid-phase assay and BIAcore; source not stated) (Oryctolagus cuniculus (Rabbit), UniProt P68135 3-377). The test can be described thus: SPR, BIAcore 3000, actin amine-coupled to CM5 chip. The method, then:
(§1) SPR was performed on a BIAcore 3000 instrument (BIAcore, Uppsala, Sweden). Actin was diluted in 100 mM CH3COONa pH 4.6 to a final concentration of 20 μg/ml (200 μl total) resulting in ˜1 ng immobilized actin on a CM5 BIAcore sensor chip (GE Healthcare Bio-Sciences AB) using the standard BIAcore amine coupling chemistry protocol. The CM5 chip allows four separate flow cells to be operated in the BIAcore 3000 instrument used in these experiments. Coupling is achieved by activating the surface of the sensor chips with equal volumes of 50 mM N-hydroxysuccimide (NHS)/200 mM Nethyl-N-(3-[…])-carboiimide (EDC) (BIAcore, AB, Uppsala, Sweden) to form activated carboxyl groups. An actin solution (15 μg/ml) was run over the chip for 5 min at a rate of 10 μl/min, allowing the amine groups on the protein to react with the activated esters. In the final stage of immobilization, the surface was blocked by 1M ethanol amine, pH 8.0. […] Injections were performed simultaneously over all four channels and blank surface (a plain dextran matrix, channel 1) was used as control. The net signal was obtained by subtracting the blank signal from the signal of the immobilized surface. The association phase for protein or peptides binding to actin was followed for 4 min, and dissociation phases were monitored for 3 min. Surface regeneration between consecutive binding cycles included a 1 min injection of 1 mM NaOH. The response was monitored as a function of time (sensorgram) at 25° C. Multi-concentration data were globally fit using BIA evaluation 3.2 software.
Background: SPR reads the build-up and loss of mass on a sensor chip optically.

Test [2] concerns the target T1, actin (Example II solid-phase assay and …). The test can be described thus: solid-phase actin binding assay: 500 ng actin coated per well, protein in 1:2 dilutions from 500 ng/well, rabbit anti-trT2-49 and goat anti-rabbit IgG-HRP, A655. As to the method:
(§2) 96-well plates (MaxiSorp® flat-bottom 96-well plate, Fisher Scientific Inc., Fair Lawn, N.J.) were coated with 500 ng actin in 100 μl carbonate-bicarbonate buffer (pH 9.5) for 1 h at 37° C. The plate was washed once with TBS and then blocked with 3% BSA in 200 μl TBS buffer at 37° C., for 1 h. […] The wells were washed three times with TBST and then incubated with 100 μl goat anti-rabbit IgG-HRP (Jackson ImmunoResearch, West Grove, Pa.) diluted 1:10,000 in TBS, for 1 h at 37° C. Wells were then washed twice with TBST, and once with TBS before 100 μl substrate (1-step Ultra TMB-ELISA, Pierce, Fisher Scientific Inc.) were added. Absorbance at 655 nm was measured 10 min thereafter using a Power Wave 200 Microplate Scanning Spectrophotometer (Bio-Tek Instrument, Winooski, Vt.). Affinity was evaluated by double reciprocal plotting.
To further evaluate the strength of this interaction BIAcore analysis was performed in order to quantify and understand the kinetics of the interaction between these two molecules.

Test [3] shares this target. Briefly: SPR, BIAcore 3000, actin amine-coupled to CM5 chip; column heads taken as printed. The method, then: as §1
Test [4] has the same target. Briefly: solid-phase actin binding assay: 500 ng actin coated per well, peptide in 1:2 dilutions from 500 ng/well, rabbit anti-trT2-49 and goat anti-rabbit IgG-HRP, A655. As to the method:
as §2
(§3) For further insight on the actin binding site within the hRNASET2 protein sequence 29 candidate peptides were tested for their ability to bind actin.

The target is the same in test [5]. Briefly: solid-phase actin binding assay (ELISA, immobilized actin), double reciprocal plot. The method, then:
as §2, §3

The target is the same in test [6]. The test can be described thus: not given; presumably the solid-phase actin binding assay of the 29 peptides.
Test [7] shares this target. The test can be described thus: solid-phase actin binding assay: 500 ng actin coated per well, protein in 1:2 dilutions from 500 ng/well, rabbit anti-trT2-49 and goat anti-rabbit IgG-HRP, A655. The method, then:
as §2, §3
This is another data set of the same source.

For test [8] the target is unchanged. Described as above. As to the method:
as §2, §3
The source holds these as a separate data set.

B1: trT2-49m polypeptide (other)
chain: EGCNRSWPFNLEEIKDLLPEMRAYWPDVIHSFPNRSRFWKHEWEKHGTCAAQVDALNSQKKYFGRSLELYRADFKDALARVYGVIPKIQCLPPSQDEEVQTIGQIELCLTKQDQQLQNCTEPGEQPSPKQEVWLANGAAESRGLRVCEDGPVFYPPPKKTKH
B1: the kon (as a rule, a measure of how fast the partners come together) in test [1] is 500 M⁻¹ s⁻¹. Also, the “EC50 (read off the curve)” value in test [2] was around 20 ng/100ul. Also, in test [3], the Kd – broadly, a measure of binding affinity in units of concentration – is 19.4 µM and the off-rate (koff) (commonly the rate constant with which the complex falls apart) turned out to be 0.00969 s⁻¹.

B2: peptide A103-Q159 (peptide)
peptide: ALNSQKKYFGRSLELYRELDLNSVLLKLGIKPSINYYQVADFKDALARVYGVIPKIQ
notes: Synthetic peptide of human RNASET2, tested free in solution; also called 22A
In the case of B2, in test [4], the “EC50 (read off the curve)” value is around 20 ng/100ul. The Kd in test [5] is 0.068 µM. In test [3], this molecule gave a Kd of 0.00322 µM and a koff of 3.04 s⁻¹.

B3: peptide K108-K133 (peptide)
peptide: KKYFGRSLELYRELDLNSVLLKLGIK
modifications: not fully specified
notes: Synthetic 26 aa peptide of human RNASET2 (helix 5 and 6), tested free in solution in ELISA and SPR; also called 22B; T2 peptide
Turning to B3, the kon in test [1] was 3320 M⁻¹ s⁻¹. In test [3], binding was put at a Kd of 14.2 µM and the koff worked out at 0.0458 s⁻¹.
For the molecule KKYFGRSLELYRELDL (also called K108-L123 (16 aa)) [peptide K108-L123], the binding result in test [6] is reported as “no binding”.

B4: truncated RNASET2 polypeptide trT2-49 (other)
chain: EGCNRSWPFNLEEIKDLLPEMRAYWPDVIHSFPNRSRFWKHEWEKHGTCAAQVDALNSQKKYFGRSLELYRELDLNSVLLKLGIKPSINYYQVADFKDALARVYGVIPKIQCLPPSQDEEVQTIGQIELCLTKQDQQLQNCTEPGEQPSPKQEVWLANGAAESRGLRVCEDGPVFYPPPKKTKH
notes: Described as amino acids 49-232 of full length, native RNASET2; also called truncated T2 polypeptide
Take B4: the “EC50 (read off the curve)” value in test [7], in test [8] and in test [2] was around 30 ng/100ul each time. The molecule also showed a kon in test [1] of 1710 M⁻¹ s⁻¹. Besides, the dissociation constant (Kd) in test [3] came out at 7.72 µM. Further, the koff in test [3] is 0.0132 s⁻¹.
